Publication PMC4622456 (mAbs, 2015)

Assays:
recombinant human IL23 [1] = target: T1, recombinant human IL23 (human, UniProt Q9NPF7;P29460); assay: cell-based or functional assay
recombinant human IL23 [2] = target: T1, recombinant human IL23; assay: SPR

T1 sequence (Q9NPF7 20-189, chain 1 of 2): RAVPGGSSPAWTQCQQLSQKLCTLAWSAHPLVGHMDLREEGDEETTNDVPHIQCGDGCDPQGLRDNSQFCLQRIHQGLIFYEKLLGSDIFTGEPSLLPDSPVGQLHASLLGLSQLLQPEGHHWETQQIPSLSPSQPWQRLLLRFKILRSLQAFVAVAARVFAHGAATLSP
T1 sequence (P29460 23-328, chain 2 of 2): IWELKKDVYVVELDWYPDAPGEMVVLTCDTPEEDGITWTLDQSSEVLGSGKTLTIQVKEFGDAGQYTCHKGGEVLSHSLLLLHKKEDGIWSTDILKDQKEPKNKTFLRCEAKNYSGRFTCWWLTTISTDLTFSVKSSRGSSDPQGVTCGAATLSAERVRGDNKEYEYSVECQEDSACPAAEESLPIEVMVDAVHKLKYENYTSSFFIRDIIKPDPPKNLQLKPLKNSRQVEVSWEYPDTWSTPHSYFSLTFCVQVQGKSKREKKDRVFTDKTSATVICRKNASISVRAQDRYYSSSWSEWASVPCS

| Inhibition of IL23 induced IL17 production in mouse splenocytes (IC50, pM) (recombinant human IL23 [1]) [pM] | Kd (recombinant human IL23 [2]) [nM] | Binder |
| --- | --- | --- |
| 8 | 0.025 | mouse 6B8 (antibody, V domains shown) VH: QVQLQQSDAELVKPGTSVKTSCKISGNTFTDQTIHWMKQRPEQGLEWIGYIYPRDDSPKYNENFKGKATLTADKSSSTAYMQLNSLTSEDSAVYFCAIPDRSGYAWFIYWGQGTLVTVSS VL: DIVMTQSHKFLSTSVGDRVTITCKASRDVAIAVAWYQQKPGQSPKLLLFWASTRHTGVPDRFTGSGSRTDFTLTISNVQSEDLADYFCHQYSSYPFTFGSGTKLEIK |
| – | < 0.01 | recombinant chimeric 6B8 (antibody, V domains shown) VH: QVQLQQSDAELVKPGTSVKTSCKISGNTFTDQTIHWMKQRPEQGLEWIGYIYPRDDSPKYNENFKGKATLTADKSSSTAYMQLNSLTSEDSAVYFCAIPDRSGYAWFIYWGQGTLVTVSS VL: DIVMTQSHKFLSTSVGDRVTITCKASRDVAIAVAWYQQKPGQSPKLLLFWASTRHTGVPDRFTGSGSRTDFTLTISNVQSEDLADYFCHQYSSYPFTFGSGTKLEIK |
